The numbers were not newly measured in PMC4616163, “Inverse relationship between chitobiase and transglycosylation activities of chitinase-D from Serratia proteamaculans revealed by mutational and biophysical analyses” (Scientific Reports, 2015), which cites them from elsewhere.

On the set-up of the series: method as in PMID 11160110, PMID 18368288. The conditions noted are these: other chitinases, literature.

B1: SmChiA: mesophilic chitinase (protein, UniProt P07254 24-563, looked up)
Chitinase A: AAPGKPTIAWGNTKFAIVEVDQAATAYNNLVKVKNAADVSVSWNLWNGDAGTTAKILLNGKEAWSGPSTGSSGTANFKVNKGGRYQMQVALCNADGCTASDATEIVVADTDGSHLAPLKEPLLEKNKPYKQNSGKVVGSYFVEWGVYGRNFTVDKIPAQNLTHLLYGFIPICGGNGINDSLKEIEGSFQALQRSCQGREDFKVSIHDPFAALQKAQKGVTAWDDPYKGNFGQLMALKQAHPDLKILPSIGGWTLSDPFFFMGDKVKRDRFVGSVKEFLQTWKFFDGVDIDWEFPGGKGANPNLGSPQDGETYVLLMKELRAMLDQLSAETGRKYELTSAISAGKDKIDKVAYNVAQNSMDHIFLMSYDFYGPFDLKNLGHQTALNAPAWKPDTAYTTVNGVNALLAQGVKPGKVVVGTAMYGRGWTGVNGYQNNIPFTGTATGPVKGTWKNGIVDYRQIAGQFMSGEWQYTYDATAEAPYVFKPSTGDLITFDDARSVQAKGKYVLDKQLGGLFSWEIDADNGDILNSMNASLGNSAGVQ
In the case of B1, the Tm is 64.2 °C.
